From the supplement of paper PMC6757056
± gives the standard deviation of the averaged measurements.

B1: library; a variant is named by its letters at N, in order (parent)
chain: GCUGUCACCGGUGCUUGGUACGUUAUAUUCAGCCGGUCUGAUGAGUCUNNNNNNAGACGAAACAGC

How the values were obtained:
[1] = variants of: B1; assay: FACS-Seq fitted mean relative fluorescence mCherry/BFP without ligand (log10 relative fluorescence); HEK293T overexpressing SLC46A1; higher = higher reporter protein expression; details: without (6R,S)-folinic acid; ligand present: no
Method in brief: (§1)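 Cells were sorted into 6 bins on the mCherry/BFP ratio after 48 h with or without ligand. These were enriched HEK293T cells transduced by lentivirus with a ribozyme-switch mCherry reporter plus an EF1α-BFP marker. Fluorescence was obtained by fitting a normal distribution to sequencing-derived bin counts. Counts came from MiSeq sequencing of PCR-amplified, barcoded genomic DNA, binned by log10(mCherry/BFP), with means scaled to five spiked-in control ribozymes.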

[2] = variants of: B1; assay: normalized RNA/DNA level without ligand (relative to sTRSVctl = 100) (log10 (% of sTRSVctl)); HEK293T overexpressing SLC46A1; higher = less ribozyme self-cleavage, higher mRNA level; details: without (6R,S)-folinic acid; ligand present: no
Method in brief: (§2)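 Total RNA, extracted with EDTA 72 h after HEK293T cells were transfected with 4 µg per 6-well well of reporter-linked ribozyme switch library plasmids, was reverse-transcribed, amplified, barcoded and sequenced. Ligand, if used, was added 1 h before transfection. RNA level was derived from RNA reads divided by DNA reads and normalized to a spiked-in non-cleaving sequence or to the top sequences. This was multiplied by 100 and log10-transformed, with the top set of 25 sequences and a ≥100 DNA read minimum.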

[3] = variants of: B1; assay: FACS-Seq fitted mean relative fluorescence mCherry/BFP with ligand (log10 relative fluorescence); HEK293T overexpressing SLC46A1; ligand concentration (+) FACS-Seq: 6 mM; higher = higher reporter protein expression; details: with (6R,S)-folinic acid; ligand present: yes
Method in brief: as §1

[4] = variants of: B1; assay: normalized RNA/DNA level with ligand (relative to sTRSVctl = 100) (log10 (% of sTRSVctl)); HEK293T overexpressing SLC46A1; ligand concentration (+) RNA-Seq: 6 mM; higher = less ribozyme self-cleavage, higher mRNA level; details: with (6R,S)-folinic acid; ligand present: yes
Method in brief: as §2

Row | Variant | FACS-Seq fitted mean (log10) [1] | normalized RNA/DNA level without ligand (log10) [2] | FACS-Seq fitted mean (log10) [3] | normalized RNA/DNA level with ligand (log10) [4]
1 | AGGCUC | 0.131 ± 0.13 | 2.06 ± 0.041 | -0.123 ± 0.11 | 2.01 ± 0.067
2 | CGGGAA | 0.288 ± 0.27 | 1.98 ± 0.024 | 0.519 ± 0.063 | 2.02 ± 0.046
3 | GGGGAA | 0.571 ± 0.12 | 1.996 ± 0.0088 | 0.428 ± 0.4 | 2.06 ± 0.034
4 | CGGGAC | -0.0861 ± 0.029 | 2.015 ± 0.0095 | -0.418 ± 0.079 | 2.02 ± 0.032
5 | AGGGAC | -0.124 ± 0.15 | 1.972 ± 0.011 | 0.0745 ± 0.15 | 1.994 ± 0.01
6 | UGGGAG | -0.0508 ± 0.0099 | 1.6 ± 0.025 | 0.331 ± 0.024 | 1.93 ± 0.078
7 | AGGGAG | 0.271 ± 0.18 | 1.8747 ± 0.0018 | 0.349 ± 0.099 | 1.99 ± 0.046
8 | CGGGAU | 0.211 ± 0.017 | 1.97 ± 0.029 | 0.0466 ± 0.17 | 2 ± 0.049
9 | UGGGAU | 0.3975 ± 0.0017 | 1.86 ± 0.022 | 0.547 ± 0.094 | 2 ± 0.046
10 | GGGGCC | -0.232 ± 0.1 | 2.05 ± 0.023 | -0.6 ± 0.34 | 2.05 ± 0.015
11 | UGGGCC | 0.229 ± 0.0089 | 2.048 ± 0.012 | 0.157 ± 0.022 | 2.03 ± 0.0098
12 | UGGGCG | 0.142 ± 0.034 | 1.787 ± 0.014 | 0.637 ± 0.097 | 2.009 ± 0.0047
13 | CGGGUA | -0.402 ± 0.16 | 1.939 ± 0.018 | -0.606 ± 0.59 | 1.97 ± 0.054
14 | UGGGUG | -0.154 ± 0.034 | 1.687 ± 0.0083 | 0.261 ± 0.016 | 1.95 ± 0.057
15 | CGGUAA | 0.149 ± 0.092 | 1.954 ± 0.014 | 0.184 ± 0.083 | 1.993 ± 0.013
16 | GGGUAA | 0.299 ± 0.036 | 1.997 ± 0.011 | 0.348 ± 0.28 | 2 ± 0.026
17 | UGGUAA | 0.244 ± 0.12 | 1.878 ± 0.01 | 0.0329 ± 0.18 | 1.95 ± 0.02
18 | GGGUAC | 0.536 ± 0.17 | 1.952 ± 0.0069 | 0.245 ± 0.036 | 1.99 ± 0.073
